The numbers were not newly measured in PMC8466385, which cites them from elsewhere.

This data set concerns the target Tyr411 (UniProt position 435, ALLVRYTKKVP). In words: kinetics. The settings on record: not stated for the pKa values (Table 1 footnote c gives 22.0 °C for kinetic parameters from the same reference).

For the substance “Human serum albumin (HSA) (Homo sapiens)”, the pKa runs as follows: (HSA:NphODe (p-nitrophenyl decanoate) substrate complex) 7.0; (HSA:NphOHe (p-nitrophenyl hexanoate) substrate complex) 7.6; (substrate-free HSA) 8.9.
